In assay [1] the target is T1, WT SARS2 RBD (SARS-CoV-2, UniProt P0DTC2 321-591). The assay can be described thus: SPR.
Assay [2] concerns the target SARS1 RBD (SARS-CoV-1). The assay can be described thus: SPR. For orientation: Surface plasmon resonance follows binding to a sensor surface in real time, without labels.
Assay [3] has as its target T1, WT SARS2 RBD. The assay can be described thus: ELISA. (In general: In an ELISA, binding on a coated surface is turned into a signal by an enzyme label.)
For assay [4], the target named is T1, WT SARS2 RBD. The assay can be described thus: SPR. This is another data set of the same source.
The target of assay [5] is SARS1 RBD (SARS-CoV-1). The assay can be described thus: SPR. The source holds these as a separate data set.

Where two headings read alike, the source gives them in different places.

B1: aSA3 (VHH)
VHH: QVQLVESGGGLVQPGGSLRLSCAASGFTSDHYALAWFRQAPGKEREGVSCIDSDGNPFYADSVKGRFTGSRDNAKNTVYLQMNSLKLEDTAVYYCAAGLWYGRSLNSFDYDYWGQGTQVTVSS
Broadly, the koff is the first-order rate constant of dissociation. Low readings indicate a long-lived complex, high ones a short-lived complex. As to B1, the off-rate constant (koff) with WT SARS2 RBD [1] came out at 9.77e-05 s⁻¹; with SARS1 RBD [2], 0.000364 s⁻¹.

B2: aSA3-Fc (Fc fusion)
chain: QVQLVESGGGLVQPGGSLRLSCAASGFTSDHYALAWFRQAPGKEREGVSCIDSDGNPFYADSVKGRFTGSRDNAKNTVYLQMNSLKLEDTAVYYCAAGLWYGRSLNSFDYDYWGQGTQVTVSS
The EC50 is the concentration that produces a half-maximal response. Low readings indicate an effect from little substance, high ones a need for much substance. On to B2, for which the EC50 with WT SARS2 RBD [3] is 0.74 nM. The koff worked out at 1.44e-05 s⁻¹ with WT SARS2 RBD [4] and 8.26e-05 s⁻¹ with SARS1 RBD [5].

The record behind these values is publication PMC9734137 (2022).
